{"source": "paper PMC13293227", "molecular_target": "T1, GST-ZAKα 701-800 (Homo sapiens, UniProt Q9NYL2 701-800)", "T1 sequence": "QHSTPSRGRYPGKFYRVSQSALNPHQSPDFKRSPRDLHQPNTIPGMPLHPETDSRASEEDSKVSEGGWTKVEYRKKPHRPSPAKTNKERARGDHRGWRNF", "experiment": "EMSA; supershift with GST antibody; EMSA: 20 mM HEPES pH 7.6, 3 mM MgCl2, 40 mM KCl, 5% glycerol, 2 mM DTT, 100 fmol probe in 20 µl, 20 min on ice; 4% native PAGE, 0.25x TBE", "settings": "protein: recombinant; tags: GST; label: 5'-IRDye700; single strand, seemingly unstructured", "data": [{"binder": "AGCUUAGGAAUAUCAAUGUUAAGUAG (ssRNA)", "note": "[ARE-IRDye700]", "values": [{"measurement": "binding result", "result": "binds"}]}]}
